Data on one substance can be found in US10829756B2, “Discovery of enzymes from the alpha-keto acid decarboxylase family” (priority 2015, dated 2020).

What all share (assay): Steady-state kinetics of 2-ketoacid decarboxylase (ADH/NADH coupled)
Holding throughout (assay type): biochemical
Settings in all cases: other: pH 7.5, 21° C.

One data set relates to CCCCCCC(=O)C(=O)O. The method, then:
(§1) For the native KIVD and KIVD_VLV mutant, 2 ml overnight cultures of XL1B cells were transformed with pQE9 containing N-terminal his-tagged KIVD enzymes and grown in Terrific Broth (BP biomedical, Cat#3046-042) with 50 μg/mL of carbenicillin. (Fisher scientific, Cat# BP2648-5) For the GEOs, 2 ml overnight cultures of BLR cells were transformed with pet29b+ plasmid containing N-terminal his-tagged GEOs, and grown in Terrific Broth with 50 μg/mL of kanamycin. (Fisher scientific, Cat# BP906-5) These cultures were diluted 1:1000 in 500 mL of Terrific Broth with 1 mM MgSO4, 1% glucose, and 50ug/mL of corresponding antibiotics, then grown at 37° C. for 24 hours. Cultures were pelleted down at 4700 rpm for 10 mins and resuspended in auto-induction media (LB broth, 1 mM MgSO4, 0.1 mM TPP, 1×NPS, and 1×5052) for induction at 18° C. for 34 hours. At the end of induction, cells were centrifuged (4700 rpm, 4° C., 20 minutes), supernatant was removed, and cells were resuspended in 40 mL lysis buffer (100 mM Hepes pH 7.5, 100 mM NaCl, 10% glycerol, 0.1 mM TPP, 1 mM MgSO4, 10 mM Imidazole, 1 mM TCEP) and 1 mM PMSF) and sonicated for 2 minutes. Lysed cells were centrifuged at 4700 rpm at 4° C. for 60 mins to remove cell debris. Supernatant was loaded on gravity flow column with 700 μl of cobalt slurry (Fisher scientific, CAT# PI-90091) washed with 10 ml of wash buffer (100 mM Hepes pH 7.5, 100 mM NaCl, 10% glycerol, 0.1 mM TPP, 1 mM MgSO4, 10 mM Imidazole, and 1 mM TCEP). Cobalt bead bed was washed with 15 ml of wash buffer 5 times and proteins were eluted with 1000 μl of elution buffer (100 mM Hepes pH 7.5, 100 mM NaCl, 10% glycerol, 0.1 mM TPP, 1 mM MgSO4, 200 mM Imidazole, and 1 mM TCEP). Protein samples were immediately buffer exchanged with spin concentrators (Satorius, CAT# VS0112) into storage buffer (100 mM Hepes pH 7.5, 100 mM NaCl, 10% glycerol, 0.1 mM TPP, 1 mM MgSO4, and 1 mM TCEP) and stored at 4° C. until kinetics characterization. Protein concentrations were determined using a Synergy H1 spectrophotometer (Biotek) by measuring absorbance at 280 nm using their calculated extinction coefficients with ExPASy ProtParam Tool.^33 All other buffers and salts were purchased from Fisher Scientific unless otherwise specified.
(§2) The kcat and KM values of selective KIVD mutants were measured for the substrates: C3, C5, isoC5, and C8. All substrates were dissolved in MilliQ H2O and pH was adjusted to 7.5 as necessary. Activity was measured at 0.005 mM to 10 mM substrates. The assay was performed in a 96-well half-area plate. Each reaction contains a final concentration of 0.5 mM NADH, 1 mM DTT, 0.1 mM TPP, 1 mM MgSO4, reaction buffer (100 mM Hepes, 100 mM NaCl, 10% glycerol, pH 7.5) and ADH (Sigma Aldrich, A7011, 10 U/ml for C3, C5 and C8 reactions, 500 U/ml for isoC5 reactions). A wide range of ketoacid decarboxylase concentrations, 4.5 nM-15 μM, were used according to the activity of each enzyme toward different substrates in order to perform steady state kinetics measurement over a period of an hour. Absorbance readings were taken every 1-minute at OD340 at 21° C. for 60 minutes using the Synergy H1. Kinetic parameters (kcat and KM) were determined by fitting initial velocity versus substrate concentration data to the Michaelis-Menten equation.

The next data set has as its system CCCC(=O)C(=O)O. The method, then:
as §1, §2

The test system of a further data set is CC(=O)C(=O)O. The method, then:
as §1, §2

A further data set has as its system CC(C)C(=O)C(=O)O. The method, then: as §1, §2

One may read the Km as the concentration of substrate that gives half-maximal velocity. For orientation: kcat means the number of substrate molecules converted per active site and unit of time at saturation. A word on the kcat/Km: it is the turnover number divided by the Michaelis constant. On to “1OVM (1OVM_P23234), ketoacid decarboxylase, SEQ ID NO: 26 (Enterobacter cloacae)”, for which the Km with CCCCCCC(=O)C(=O)O stood at 0.021 ± 0.001 mM; with CCCC(=O)C(=O)O, 0.5 ± 0.1 mM; in the data set with CC(=O)C(=O)O it was 7.5 ± 0.1 mM; in the data set with CC(C)C(=O)C(=O)O, 6.1 ± 0.6 mM. For the same substance, the kcat in the data set on CCCCCCC(=O)C(=O)O was 1.7 ± 0.1 s⁻¹; in the data set with CCCC(=O)C(=O)O, 1 ± 0.1 s⁻¹; with CC(=O)C(=O)O, 0.2 ± 0.01 s⁻¹; in the data set on CC(C)C(=O)C(=O)O, 7.8 ± 0.4 s⁻¹. Moreover, the kcat/Km with CCCCCCC(=O)C(=O)O turned out to be 80000 ± 4300 M⁻¹ s⁻¹; with CCCC(=O)C(=O)O it was 2100 ± 420 M⁻¹ s⁻¹; in the data set with CC(=O)C(=O)O it was 32 ± 0.5 M⁻¹ s⁻¹; in the data set on CC(C)C(=O)C(=O)O, 1300 ± 130 M⁻¹ s⁻¹.
